{"source": "paper PMC11787825", "binders": {"B1": {"name": "PT1 (dsDNA)", "DNA 1": "GATTACGAATTCGAGCTCGGTACCCGGGGATC", "DNA 2": "CACACACACACACACACAGATCCCCGGGTACCGAGCTCGAATTCGTAATC", "modifications": "primer 3'-terminal dideoxycytidine (ddC)"}, "B2": {"name": "PT2 (dsDNA)", "DNA 1": "B1 DNA 1", "DNA 2": "B1 DNA 2 with A18C", "modifications": "primer 3'-terminal dideoxycytidine (ddC)"}, "B3": {"name": "PT3 (dsDNA)", "DNA 1": "GATTACGAATTCGAGCTCGGTACCCGGGGATCG", "DNA 2": "B1 DNA 2", "modifications": "phosphorothioate bonds at primer ends (after nt 1 and before the 3'-terminal G)"}}, "experiment_in_all_cases": "cryo-EM structure", "key": {"[1]": {"biological_target": "T1, HSV-1 Pol (PolΔN42);UL42 (UL42ΔC340) (Herpes simplex virus 1 (strain …, UniProt H9E937;H9E949 43-1235;2-340, |))"}, "[2]": {"biological_target": "T1, HSV-1 Pol (PolΔN42);UL42 (UL42ΔC340)", "remark": "listed apart in the source"}, "[3]": {"biological_target": "T1, HSV-1 Pol (PolΔN42);UL42 (UL42ΔC340)", "remark": "listed apart in the source"}}, "note": "Changes are numbered by the printed parent chain. Like-named read-outs stand apart in the source and are kept apart here.", "data": [{"binder": "B1", "values": [{"measurement": "binding result", "setting": "[1]", "value": "binds"}]}, {"binder": "B2", "values": [{"measurement": "binding result", "setting": "[2]", "value": "binds"}]}, {"binder": "B3", "values": [{"measurement": "binding result", "setting": "[3]", "value": "binds"}]}]}
